# Measured values: patent US20060052292A1 (MAXYGEN APS MAXYGEN, published 2006)
# B1: apM1(82-244), human adiponectin fragment expressed in CHO K1 cells (other)
# chain: ETGVPGAEGPRGFPGIQGRKGEPGEGAYVYRSAFSVGLETYVTIPNMPIRFTKIFYNQQNHYDGSTGKFHCNIPGLYYFAYHITVYMKDVKVSLFKKDKAMLFTYDQYQENNVDQASGSVLLHLEVGDQVWLQVYGEGERNGLYADNDNDSTFTGFLLYHDTN
# modifications: partial hydroxy-Pro at 86, 95 and 104; partial glyco-hydroxy-Lys at 101 (about 60%)
# notes: Forms a calcium-stabilised homotrimer on native gels; On the Western blot the denatured monomer is detected
# Target: the molecule itself
# Test: native Tris-Glycine gel, self-association (homotrimer) of apM1(82-244)
# Method: After storage at −20° C. for several weeks the material was verified to have a heterogeneous appearance on a coomassie stained Novex 8-16% Tris-Glycine gel (Invitrogen; Cat. No. EC60452) run under native conditions (FIG. 4, lane 1). […] (In FIG. 4, M is SeeBlue Plus2).
protein,measurement,value
B1,binding result,binds
